Patent US20160030544A1

Molecular target: fH6-7 (factor H CCP domains 6-7) (UniProt P08603)
Experiment: SPR, Biacore 3000, protein on CM5 chip, fH6-7 as analyte

Sequence of fH6-7 (factor H CCP domains 6-7) (P08603 321-443 limits assumed): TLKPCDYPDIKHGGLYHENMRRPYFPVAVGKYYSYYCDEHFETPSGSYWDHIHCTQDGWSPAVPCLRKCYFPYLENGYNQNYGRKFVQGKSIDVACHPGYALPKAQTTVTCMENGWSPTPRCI

V3.45 fHbp (variant 3 factor H binding protein of N. meningitidis), recombinant wild type
Kd: 1 nM
